Target: T1, GST-MAZ (UniProt P56270 1-477)
T1 sequence: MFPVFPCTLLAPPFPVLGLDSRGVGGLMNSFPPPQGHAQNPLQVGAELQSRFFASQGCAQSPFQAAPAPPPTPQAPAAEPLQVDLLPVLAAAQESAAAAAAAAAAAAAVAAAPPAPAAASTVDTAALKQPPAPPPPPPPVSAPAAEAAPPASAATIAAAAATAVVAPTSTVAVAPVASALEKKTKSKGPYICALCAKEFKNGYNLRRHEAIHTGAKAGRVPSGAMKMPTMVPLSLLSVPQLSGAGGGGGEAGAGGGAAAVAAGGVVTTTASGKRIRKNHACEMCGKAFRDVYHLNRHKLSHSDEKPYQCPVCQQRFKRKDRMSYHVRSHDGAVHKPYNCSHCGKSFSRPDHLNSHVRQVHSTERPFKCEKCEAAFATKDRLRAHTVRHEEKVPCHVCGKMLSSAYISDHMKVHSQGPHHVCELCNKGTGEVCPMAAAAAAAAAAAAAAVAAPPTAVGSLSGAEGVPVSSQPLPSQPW
Test: EMSA; EMSA: 10 mM Tris-HCl pH 7.5, 50 mM NaCl, 5 mM MgCl2, 1 mM EDTA, 10% glycerol, 1 ug poly(dI-dC), 30 C 30 min; DAPA: 20 mM HEPES pH 7.6, 10 mM (NH4)2SO4, 1 mM EDTA, 1 mM DTT, 1% Tween 20, 100 mM KCl, 4 C
Conditions: protein: recombinant; label: 32P 5' end; blunt

B1: wt 34-nt EMSA probe (dsDNA)
DNA 1: GCCAAGAGCCAGACCCTCCCTCTGGGCTCTGCTGGCCCA
DNA 2: TGGGCCAGCAGAGCCCAGAGGGAGGGTCTGGCTCTTGGC
binding result: binds

From PMC2174947, “Transcriptional regulation of human eosinophil RNases by an evolutionary- conserved sequence motif in primate genome”
